In the DeepSol protein solubility set:

Assay: soluble on expression in E. coli; label from the status in PepcDB or PDB records

Sequence	soluble on expression in E. coli
MAHHHHHHMPTVSSSTPSPASTPTVGVPPGKVWLNADEPNDEYSLFCTEAIPPKVPGTVRIWVDGCFDMLHFGHANALRRARRLGDELFVGCHSDEEVMRFKGPPIMHAEERYEALRACKWVDHVVENYPYCTRLKDIERFEIDYVVHGDDISVDLNGRNSYQEIIDAGKFKVVKRTKGISTTDLVGRMLLCTKNHMLKSVDEVQLENSLLEHSPTMPCLTTSRKIVQFSNNSSPKPGDRIVYVDGSFDLFHIGHIRVLQKARELGDYVIAGVYEDQVVNEHKGKNYPIMSFNERVLGVLSCRYVDEVVMGVPFDVSKDVIDGLHINVVVGDKFSDLVVEEGGSTRYEVPKAMGIYHEVDSGCILSTDSLIDRVVENRLDFLKRQAEKRIKDTKSQEIKPDEYRKLREAS	not soluble
MAHHHHHHMPVIKEYINPAGLRLDGRRPNEPRRLALEFGKISGCDGCCTVVSGLSHVCATVYGPREVSNRLEGKYNEVTITCDVVVAAFAGERRREQQRYSRLSEDISASVLDVARSVVLLSQYPNSQIHICIEVLKQDGSDKAACINAACLALIDASIAMKDVVYTQTVGLIEGFDVVDLTTEEIHSQCPSICITVQGHDPTNIVWMESNSRLAPEVITRLVKVAQKASTDVFETALRGPLEEHAATVLRLQANLGNIE	soluble
MAHHHHHHMQAAAPGQTLSSALRFWADVSYGDAPPAALIDYPPLGFEEDSSRLTVGALQASRDAAAADSRRQLGLKTQRASEDVDGSAHPALLLGVKEESSTLAVTREELEGEEGPAWLQPPLLLQLDDGLEDRQFAAATTTGRTAPVPHLRYDGAGLLAVMHVHSSGIAYVGYPRASDTVSSAEPTDGLVRLPDNVPPADPLAVAAPTPAPICSLPMSSSTGFVRGLLGLS	not soluble
MAHHHHHHMQFVSDLGLELSVFVCHLYAKYSEEPLKAFHELVLRTRSSCCGSDDSSNYLSLATLSGTQWYQDMTKRYASLRQRLRGERDNDVQEAREVTLSLYPQGCRVSEYADAIVTSAAMLTSNIPSTVLERFASCRVKDLNEKGCVSISADELASDLIERPVLDSFTPSRWWESDKTAPSSSLKDGLVAVKSIGLRVQPVEILIFYTYNGRPRRRFIPLDGLLHENSPIAPLLRRLVRSHGMLVSESQLRSYLQRLQELMRKSVESHASTVKPEGPLQPQFDWKQQIGYSDNAPAAHNTGEEEQHMTSAKTGEPEVNKADVGLLYRDPEAALKNVDLNDADDITLQEFKAKMNEGFMQNALRPGDPGYVYDKRLDVNPTERSEWDDSD	not soluble
MAHHHHHHMQFVVVDGSWPVVPCAIPRSQLLARSVKDTDHGEDGGGQSVLPGHALFTLCQEVLDTSASKTKAPPELATLDMTFLRDPQSGPLGALRLYTFKSVSHQFFAVEDLVSSGCLIVFTSHWASLTSAALLTGVRTTHKEKDDSAKSSRRRIENNTGSGTREVSASRASSLMGRGRSVLQKFSRAETYFTSVASATQRDFEMVNELLLSGTIRMNAHLESFLCSVCGNLPRRTMTTSCCGAVVCLLCAPTLSSSSVLREEVVCAVCGEMPLTNPEAHVSRDAEVMRLVRELRVLYHPQVSAAACRAMPGETQPPPTPFNVHHAGLPVPICDMNEPTGSVLGSVFMGPS	not soluble
MAHHHHHHMQPKMTAPLTMKDNNKCLSVRVGSTLEIHLEGNPTTGYTWTRVGFVGKEMLSDEHLEVTSKYTPKPVSGSMVGAGGSYTVFVKPLRKGQHAVQLVYARPFEGPKPDNERYTLHLNVE	soluble
MAHHHHHHMQPMVLPYVDRKPPISKVMDARVLVWRESERMLRNGEGAAECSYAQKLQVLRSQQLADARKYMDTSAAMRSVKPVLATSSVDADDDDEFCRKRSRESEGPSVDEIRRFEGKLGETLALELTLWSLRRGSHGGVRSQRYTTALHALQDTQKLLRKTLQQMEEINALRFLEQQQFLKVNSEKARLLHVRLRNVRALENILRGNGKRRGSTLLATLE	not soluble
MAHHHHHHMQQENRHLSSADLFKKFTLQNVAQIANISNKEQSQIRGELTEQYPLLADFWEDIMPKKADIMLVRCHDQVHCVTLVSSQPEVLFFRHHNSPYIPHLKLLHKYPFILPRQQVDIGGCKYVVSGANVMCPGLTSEGGYITPGLAAGAIVAIHVEQKEHAIAVGRMLMSSEEIERVNNGPGIENIHHLGDGLWMNRVLSSSHIGAR	soluble
MAHHHHHHMQRDADRMKRKKEEHRDEEEFGAFRFADGSMYEGKFCRRESNADGTAKSQFPSAHPPTTRNAQQQELPPPIPFHHGKGVFKDAGGLVYDGCWVEGDMTGEGLLRFPSGATYEGSMYANSFWGTGTYTWPDGSRYEGQWENNKMHGKGTYIDAKGKRWAGKFHHGQGVGLLAEVSL	soluble
MAHHHHHHMQRHSRRGLLKYLSGVRVEYGGSAAKLLDSYLHQDAGAKHAANLPVSQRYFYIKNRNNDASLSSATGASQQHQTVQLRLGAAQMLSSSQHTSIDNLNEAHPLYYAQTSPSAAGLAAPLVLALKRLRIRQLTALQGALVPLLLKGKHVIAHSETGTGKSFGIALALANRIIRDQLNYRLHTVVLVPTEELALQYDKWLRHFGGCTSQVVQVAIDSIPLEAQLAKLHNIQPHVLVGTPQRVAEIVRLSPSILGEKLRRKVDCVVLDEADMIIHANVVYGRQQLSGANLVDRLFRNRREEVPAQLVAASATVDGVTAQTLNTWTRNDRTVRLTTSFVEHTIPPTIQFYFFGASRAYPLERCLLLSLQLICTQRPDARILIFTEDERVAEVCTLLTSAEVEGEMRRIAPGALSSTKVFAGALHALPRSIPSADNKESHGPDNPVSHRRVPLTTATQQAAPFSAIRGSGNVYEDVRAHQVIRQHGDVYVKNNSSLSRLNEGKLVVGVGSFNSSRGLHVNGITHVILYGACPSAACFVHCAGRTGRMGAEGDVLVLYPPSSGRQVQQVCSSLEVPFHSSRMSAVEDLLRSGEARTTESAAGAVTESASGAAADNT	not soluble
MAHHHHHHMQSSISQEKLQLMQKNFNLVDLNKDGKIAAEEFKTLLRLLGQTKTEKEMDEMVDKHFEDAPIGEEQQQDAAEAADKGGANEGTPSTAKQLGGQ	soluble
MAHHHHHHMQSTGGLPFYGNLYAGRVDSQNYVPPRQGGSGLLEVDKSLWDNPATRQKLQSCPYFALSDQVMFHNMDPVYLDPGLLSPEEHQLLLLFSRAYYEKWSVIHRRPPHALPRLRITYGSSKLLDEILFLLDVHPDVCEVLKKEYAVDDSTLIGMNPNLWSSAYLDPANMDHLSGRVLEFAGVPEPKRTKFFLLLDQMRRIKVHRRDLPNSEERVDVVPFCYGVTLYDFCKFLGITPYSGQLKVYDYVDLQGTARSETLKDEDSYFDYLVALFYRADVRSATLTDLADASDHTCRYTVTVEPFTTADRRVGRWF	soluble
MAHHHHHHMQTGPFAAVTRVPDHVRNMILNEIASENIWLFDRGRCEAVTVGDMRSSSFSIPMAESPPAVGCELDNNEHLLLYDLMRVRNGQVMFENDHFSRIRQNCILTAPTACDAANVSEDEDLGKLSTYIEGVRSTTRDFIKCNPWENGDVNLKFVTWVLPSQLSDVSTAERRSELLRTLSYAVYYVTSFFPPEDWYEEGTRYAMLYDAQRHTPNAKILQVPLRERAKALQQTTNAFEVLLVSDNRRHYLVPEGSRSNYLIVSGDESLLCSLEEDILVGITLRVARRAAACARLPPLRHRKLVLGDICLAKSIAMLGTSPGVLPIKEIQVFYDEESKQNFLLAMEDYMQDKDEEIQRAVINVRGRILNDDGLLRLESPSCDTLKRLRAAYEAEALL	not soluble
MAHHHHHHMRANPIERRKERETALSVRQRELEELRQRKAQLGEELGMELSALEGDNLAAAFPVIQYCGSRPKKDAKKIPVESLGSVMNQFEIAIKAISQNNRDIEQQITDLNRTIGVEAQRFTKLKRHSKELADATGVSLDPNAVQHLAGKSRDGEDCSGGLKELEETTVVLEERKALVEKEIRAARQLVKKKEEAVLAMSSALESRQEEIDQLNRLYNDIRVVDRDIKCEKETLREIISEHDIVDTKLNEAIERNVSRTRLLIEQGINEIKTEIADSVSVSRRGQERVMKAQEFRIDQLEKRLDCINKALKNNHLTRDVEAIVSHKWAAAGDALVAATPDESMYDIEAIIPPQERCHPAIYNLLLTEKERLARRISLLGIIAKEKKEVIDALACKAEALARECQQAIQELDHVASAAAYEEEMQRVEAMEYIQKQRLHYSDLFKEMWKLKTKNQGPLWRAY	not soluble
MAHHHHHHMRCFTPRLSAAGNGVWRGFRQMYEEYALWRDRRDDERYAAVSEEGEEGITLSNRRICANPNACPRSVLLVPADCIVEAFRRERRGGVTADAVMFDLTCCRGSRGEARDNILRFLQAEEKGEKRGEDISEGQCSHADERGRYLIRVNSPEFDSANGFLDMELAALLGERIEGVLLPAVTVNTYSLVEEYIHPSHHLWALFDTPLSVVQASEICRQGHYRYAVMGSRRLAEDLHLPIGGVTYGDTYRGENNSENATPAALLGSLPLLNSSLQVLLAARAFNMNILDDAFEDASDTAGFSRDLHLSRSLGFEGKLVINPAQLASCHAAFAPSAEELSWARGVQQRMARRYATEESAGKLEAAQWRRAACLLERHREAELQGAAPTQRGGGGGVE	not soluble
MAHHHHHHMRNVLFNGPMIPEIDAGYNVQVNGVSVNFLKDPFCFRNVVIENAYYKNKLLYKNFNDDNVNKNITNHIKRENIVELDKEFNECIKDSLNNNHVHIKKNEPDYKLNDIKSPIYKERTKYTPKIIEVIKTNYNVPHDERVKIHKENLMYMNNIEYKKANEIVEKVILTIKNETIQKPVELANDEPNNILKPNNIFKKMLL	not soluble
MAHHHHHHMRRALHAAALPSRAPLTPQRYKSYVLKFLRGQLPHDLKDCAGALGCLYGTLPDVDEYRQFVVPLQVLQQYHQLGYAKLPRPVLDPPQVDILADEVNQLANNVEHHPKSEHLYATSLADLTGGPLFYCQGQWRCAWGMHDLVYLPTLTVAASQALGNRLVRLWYDEAFMKEARTGPCVPWQQNYVRWQHTTPVNHVSIMIALDTLNKDRGAPCLIPGSHRWREGQLLPPVPYDPTQSETQQLNTIWDITNDDEQEMLADTPPATVDLRRGEALLIHPKTLFATHGNRSLDAARCCCVHYMGEATCAVQDGPLLPHTTRFRAGTRVSGPFFPVVFDPAMTEDLLMLDNKEGGAAA	not soluble
MAHHHHHHMSDLDKIRSKLEALKSKTEVKTDERIEIAKKNDPFNDLKVHILNVLDETRKCIREKESLQNVHGNNIEVIKRGNIIYNNMKNLDTYFLKLEEILKKQEKKKYAYSREELFDKNETFELLKRQIYECKKLSNYEHIKDTCVMDFSDFKNKQQVESKS	soluble
MAHHHHHHMSGRLRLYKEKLEGYNRFYSIVKTIKMVTMAKFRQAQVRIKTRDYTLRYTEKAFSKPGQLVGDSPQAKAIYIPVMTNRGSCGALNSNVVKVIDSVASSRAYLMPLGKRGIESLSKLYPSSFRMGIVNDMHEPMHFAYATYVWENAQQLCPEADRVHVIFHRCVSAGSQKQCYYNIPSYEKWREDLADASSTENQKSRYLFANTLLNEDEQMIRDFYDFHATLAILNAVCENELSEQAARLVAVEGQLSNISTLQQKTSSLYNKTRQSSITSSLIEIISAMTSLEGNAAKGVQRTNFWEGARMK	not soluble
MAHHHHHHMSHPKMKLVRRARKSIRERRMKACLKDLSSNLEKVEMRVFRQQKQKRQQQQRKGAGNHITVPPDVLRGVMNPELYHIECRLHQEACMPPPPPYEGYSQRERCDGARRRIGFVEFVTIAEMVRLGAMPGTPARVGI	not soluble
MAHHHHHHMSSCKDSLSLMAMWGSIARFDPKHERSFEGPEKRLEVIMRVVDGTHVSGLLAHDDDVWQKVIDAICAHIVSREFNEYIRSYVLSESSLFVMKDRVILITCGTITLLNCVPLICEAVSTVCGEVEWVSFMHKNYSFPWEQKGPHLSMAEEFKTLRSHFPSGQPFIFGPIDSDHYFLYFHSDVVQPSCSDDAQLSMTMYGLDRNQTKHWYSDKMLPTGPETAVIREATGLSEVVDDSWILHDLQYEPCGYSINAIRGSEYQTIHITPEEHCSFASYETNTCALNYSKCICGVLRVFDPERFSVIVFIDPDSAVGKSYHSGGTIGVEPEYYPNYEAHHRTVNEYTPGHWVLKVNYVKRAVGTVGTSAASGAKE	not soluble
